Test in all cases: native gel or EMSA
Assay [1] has as its target 12N200 nucleosome array assembled with linker histone H1.4 (UniProt P10412).
For assay [2], the target named is H2A.Z/H3K9cme3 12N200 nucleosome array saturated with H1.4 (UniProt P0C0S5).
The target in assay [3] is 12 x 200 x 601 (12N200) nucleosome array, unmodified histones.
Assay [4] has as its target H2A.Z/H3K9cme3 12N200 nucleosome array (UniProt P0C0S5).
Assay [5] concerns the target symmetric 203 bp mononucleosome (N203), unmodified histones.
For assay [6], the target named is 147 bp nucleosome core particle (N147), unmodified histones.
Assay [7] concerns the target N203 mononucleosome with a stoichiometric amount of linker histone H1.4 (UniProt P10412).

For “HP1α (Heterochromatin Protein 1 alpha), wild type (from UniProt P45973 1-191) (natural protein)”, the K1/2 in assay [1] turned out to be 2.15 µM; in assay [2], 1.15 µM; in assay [3], 0.71 µM; in assay [4] it was 0.23 µM; in assay [5], 0.58 µM; in assay [6], 2.29 µM. In addition, the K1/2 in assay [7] was 1.26 µM.

(Values after publication PMC6182156.)
